Laboratory results from US20210340232A1, “MONOCLONAL ANTIBODIES AGAINST HUMAN DICKKOPF3 AND USES THEREOF” (Board of Regents, The University of Texas System, priority 2018, published 2021).
“Also recorded” adds a separate entry of the source.

Key:
4T1 TNBC cells = assay: 4T1 orthotopic mouse model of TNBC; type: in vivo
Protocol: (FIG. 13A) DKK3 expression was measured by RT-PCR in TNBC fibroblasts (BCF), human pancreatic stellate cells (HPSC) from pancreatic adenocarcinoma (PDAC), BxPC (PDAC cancer cell) and water control. (FIG. 13B) DKK3 protein was measured by Western blotting in BCF from TNBC, in ER-positive breast cancer cells, and in TNBC cancer cell lines. (FIG. 13C) DKK3 protein was measured in patient-derived xenograft (PDX) tumors from TNBC relative to recombinant human DKK3 (rhDKK3) and conditioned medium from HPSC (HPSC-CM). Actin was used as loading control. […] Data is pooled from TCGA, EGA and GEO.
FIGS. 14A-C. Treatment of TNBC orthotopic model with DKK3 mAb. […] Tumor growth was measured by calipers at day 33 after starting treatment and compared to initial tumor size prior to treatment. (FIG. 14B) 4T1 primary tumors and metastases were imaged using IVIS at day 33 after starting treatment. (FIG. 14C) Luciferase signal from 4T1 metastases was measured by IVIS at day 33 after starting treatment.
Treatment of TNBC orthotopic models with DKK3 mAb was also tested. An orthotopic model using 4T1 TNBC cells labeled with firefly luciferase was treated with PBS, a control antibody, or JM6-6-1. […] The mice were also imaged to detect the primary tumors and any metastases (FIG. 14B).

KPC cells = assay: Syngeneic orthotopic model with luciferase-labeled KPC cells in C57/BL6 mice; type: in vivo, mouse
Protocol: FIGS. 6A-F. DKK3 blockade is associated with increased tumor immune infiltrates and improves response to checkpoint inhibitor therapy. (FIG. 6A) T cells were stimulated, treated with DKK3 (5-10 μg/mL) and proliferation was measured by CFSE assay. In a syngeneic orthotopic model with luciferase-labeled KPC cells, tumors were examined for CD3 and CD8 expression by IHC (FIG. 6B) and additional markers of T cell activity were measured by quantitative PCR (FIG. 6C). Mice in this model were treated with either control IgG, DKK3 mAb JM6-6-1, αCTLA4 or the combination JM6-6-1+αCTLA4 and tumor growth was measured by IVIS imaging to 25 and 190 days (FIG. 6D). Survival in this orthotopic implantation model is shown in (FIG. 6E). Using a GEMM (FIG. 6F), KPC/DKK3^+/+ (black line) or KPC/DKK3^−/− (blue line) mice were treated with αCTLA4 or control IgG and the Kaplan Meier survival curve is shown. *p<0.05, **p<0.01, ***p<0.001.
An orthotopic nude mouse model of PDAC using BxPC3 cancer cells labeled with firefly luciferase (BxPC3-FL) co-injected with HPSCs has been previously described (Hwang et al., 2008). Mice received intrapancreatic injections of BxPC3-FL (1×10^6 per mouse) with HPSC-shControl or HPSC-shDKK3 in a tumor-to-stroma ratio of 1:0 or 1:3 in 50-μL of HBSS and tumor growth was monitored using IVIS imaging (Hwang et al., 2008). In addition, a syngeneic immunocompetent DKK3 null model was used, provided by Dr. C. Niehrs (Barrantes Idel et al., 2006), that was injected with murine PDAC cells (termed “KPC cells”) isolated from tumors arising in a GEMM of PDAC (Pdx1-Cre; Kras^LSL-G12D;Trp53^R172H/+) (Hingorani et al., 2005; Hingorani et al., 2003) and labeled with luciferase.
In order to determine whether manipulation of DKK3 can affect the response to checkpoint inhibitors, mice in the syngeneic orthotopic C57/BL6 model were treated with either isotype control IgG, DKK3 mAb JM6-6-1, α-CTLA4 or the combination of JM6-6-1 with α-CTLA4. […] With additional follow-up to day 200 (FIG. 6D, right), tumors in all groups continued to grow albeit at a slower rate in the JM6-6-1 and combination JM6-6-1+α-CTLA4 groups (FIG. 6D). […] Combination treatment JM6-6-1+α-CTLA4 was associated with a highly significant improvement in survival (p=0.004) and median survival was not reached in this group (FIG. 6E). […] In the combination treatment group, 80% of mice were alive and appeared healthy at 800 days and were electively sacrificed. In the JM6-6-1 group, 20% of mice were still alive at 726 days when they were electively sacrificed.

B1: JM6-6-1: monoclonal antibody against human DKK3; heavy chain variable SEQ ID NO: 19, light chain variable SEQ ID NO: 20 (antibody, V domains shown)
VH: EVKLVESGGGLVKPGGSLKLSCAASGFTFTIEYMAWIRQTPEKRLEWVASISSGGDDIYYADNVKGRFTISRDNAKNTLYLQMSSLKSEDTAIYYCSRSLSDWGQGTTLTVSSAKTTPPSDYPLA
VL: MTQTPLSLPVSLGDQASISCRSSQSILHSNGHTYLEWYLQKPGQSPKLLIYKVSNRFSGVPDRFSGSGSGTDFTLKISRVEAEDLGVYYCFQGSHVPFTFGSGTKLEIERADAAQ
4T1 TNBC cells; 5 mg/kg ip q5 days, IVIS day 33
  luciferase signal from 4T1 metastases: prevented metastases
4T1 TNBC cells; 5 mg/kg ip q5 days, calipers
  tumor size at day 33 after starting treatment compared to controls: significantly smaller
4T1 TNBC cells; 4T1 mouse model of TNBC
  survival relative to control antibody and PBS: improved survival; also recorded: increased survival
KPC cells; 726 days
  mice alive at 726 days: 20%
KPC cells; at elective sacrifice
  gross tumors in pancreata of remaining mice: no gross tumors were identified
KPC cells; compared to control IgG
  tumor growth by luciferase signal: growth inhibition at 22 days and onward
KPC cells; syngeneic orthotopic C57/BL6 model
  median survival: 75 days
